The source of these data is paper PMC3940844.

Assay [1] concerns the target FH-p53 (FLAG- and oligohistidine-tagged human p53) (human) (UniProt P04637). Description: pull-down; competitive GST pull-down: FH-TLP or FH-TBP co-applied with FH-p53 to beads with GST-TBP or GST-TLP; recovered p53 by band intensity.
The target in assay [2] is GST-TBP (glutathione S-transferase-tagged human TATA-binding protein) (human) (UniProt P20226). In words: pull-down; GST pull-down with increasing amounts of protein (p53 by the text, GST proteins by the legend); ratio of bound p53 to input by band intensity.
Chain of GST-TBP (glutathione S-transferase-tagged human TATA-binding protein) (human) (P20226 whole entry): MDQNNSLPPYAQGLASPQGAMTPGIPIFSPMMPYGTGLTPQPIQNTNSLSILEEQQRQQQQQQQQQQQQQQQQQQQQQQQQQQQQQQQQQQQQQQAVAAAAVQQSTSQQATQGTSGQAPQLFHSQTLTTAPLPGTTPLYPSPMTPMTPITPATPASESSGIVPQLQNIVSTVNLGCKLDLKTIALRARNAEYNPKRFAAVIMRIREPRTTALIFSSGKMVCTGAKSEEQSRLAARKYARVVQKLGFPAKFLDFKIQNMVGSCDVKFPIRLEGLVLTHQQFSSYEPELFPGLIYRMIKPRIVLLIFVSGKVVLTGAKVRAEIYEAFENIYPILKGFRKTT

Take “FH-TBP (purified competitor in the pull-down) (from UniProt P20226 1-339) (natural protein)”: the p53 recovered on GST-TLP with FH-TBP as competitor, percent of the control experiment in assay [1] was determined as 6%.

As for “FH-p53 (FLAG- and oligohistidine-tagged human p53) (from UniProt P04637 1-393) (natural protein)”, the ratio of bound p53 to input at the plateau in assay [2] amounted to 0.5.
